These are literature values, as cited in article doi:10.1101/2022.02.18.481064.

The series deals with Cys106 (UniProt position 106, LIAAICAGPTA). The following applies: Reduced Cys106 thiol/thiolate is implied. The state is otherwise not stated.

As to “DJ-1 (Parkinson disease protein 7, PARK7) (Homo sapiens)”, the pKa is 5.4.
